Results on 45 molecules are retold here after US20200339678A1 (RIGEL PHARMACEUTICALS, published 2020).

Residue numbers refer to the chain shown, from its start.

The chains are these.
T1: His-tagged recombinant Mouse TIGIT (mouse, UniProt P86176 29-148, limits assumed)
T1 construct: not shown: His tag
T1 sequence (looked up): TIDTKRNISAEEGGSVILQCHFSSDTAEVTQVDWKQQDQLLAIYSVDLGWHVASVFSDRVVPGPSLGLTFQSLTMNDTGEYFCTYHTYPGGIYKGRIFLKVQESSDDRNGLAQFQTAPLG

B1: Ab11 (Fab, V domains shown)
VH: EVQLLESGGGLVQPGGSLRLSCAASGFTFSSYGMHWVRQAPGKGLEWVASISSNGGYTSYADSVKGRFTISRDNSKNTLYLQMNSLRAEDTAVYYCARVPYGYWIDYWGQGTLVTVSS
VL: not shown
notes: ARV set
B2: Ab88 (Fab, V domains shown)
VH: B1 VH with G33S, H35S, N54S, G55A, Y57T, Y103V
VL: not shown
notes: ARV set
B3: Ab37 (Fab, V domains shown)
VH: B1 VH with H35N, A49S, S50D, S52N, G55S, Y57S, V99G, Y103V, I105L
VL: not shown
notes: ARG set
B4: Ab58 (Fab, V domains shown)
VH: EVQLLESGGGLVQPGGSLRLSCAASGFTFSSYAMSWVRQAPGKGLEWVSSIKSSAGSSYYADSVKGRFTISRDNSKNTLYLQMNSLRAEDTAVYYCAREPYDVWIDYWGQGTLVTVSS
VL: not shown
notes: ARE set
B5: Ab57 (Fab, V domains shown)
VH: EVQLLESGGGLVQPGGSLRLSCAASGFTFSSYSMHWVRQAPGKGLEWVAYIKSDTSTIGYADSVKGRFTISRDNSKNTLYLQMNSLRAEDTAVYYCARVPYDVWIDYWGQGTLVTVSS
VL: not shown
notes: ARV set
B6: Ab106 (Fab, V domains shown)
VH: B4 VH with S35N, S49A, A55T, S57T, S58I, Y59S, D102S
VL: not shown
notes: ARE set
B7: Ab77 (Fab, V domains shown)
VH: B1 VH with G33S, H35N, S50A, S53G, G55T, S59Y, V99E, G102S, I105M
VL: not shown
notes: ARE set
B8: Ab112 (Fab, V domains shown)
VH: B1 VH with G33A, H35S, G55T, Y57S, T58I, S59Y, G102S, I105L
VL: not shown
notes: ARV set
B9: Ab8 (Fab, V domains shown)
VH: B1 VH with G33A, H35S, S50D, S52K, S59Y, I105L
VL: not shown
notes: ARV set
B10: Ab44 (Fab, V domains shown)
VH: B5 VH with A49S, Y50A, K52S, T55G, T57Y, G59S, I105F
VL: not shown
notes: ARV set
B11: Ab35 (Fab, V domains shown)
VH: B1 VH with N54S, G55S, T58K, S59Y, G102S, I105M
VL: not shown
notes: ARV set
B12: Ab79 (Fab, V domains shown)
VH: B1 VH with G33A, S50D, S52K, G55T, S59Y, Y103V
VL: not shown
notes: ARV set
B13: Ab111 (Fab, V domains shown)
VH: B1 VH with G33S, A49S, S50A, S53G, N54S, Y57S, S59Y, I105M
VL: not shown
notes: ARV set
B14: Ab190 (Fab, V domains shown)
VH: B4 VH with S35H, S49A, S50A, S57Y, E99V, D102G
VL: not shown
notes: ARV set
B15: Ab42 (Fab, V domains shown)
VH: B1 VH with S50R, S52N, Y57S, T58K, V99G, I105F
VL: not shown
notes: ARG set
B16: Ab118 (Fab, V domains shown)
VH: B4 VH with K52N, S54N, S57T, E99V, D102G, V103Y, I105M
VL: not shown
notes: ARV set
B17: Ab63 (Fab, V domains shown)
VH: B1 VH with G33S, S53G, N54S, G55T, Y57T, T58S, S59Y
VL: not shown
notes: ARV set
B18: Ab31 (Fab, V domains shown)
VH: B5 VH with S33T, Y50N, D54S, T55S, I58K, G59Y, V99G, I105L
VL: not shown
notes: ARG set
B19: Ab196 (Fab, V domains shown)
VH: B4 VH with A33S, S35N, S53G, S57T, S58T, Y59S, D102S, I105M
VL: not shown
notes: ARE set
B20: Ab164 (Fab, V domains shown)
VH: B4 VH with S50Y, K52N, S54N, A55T, S58I, Y59G, D102G, I105M
VL: not shown
notes: ARE set
B21: Ab125 (Fab, V domains shown)
VH: B5 VH with Y50S, S53G, D54N, T55A, S56G, I58T, G59Y, R98K, I105M
VL: not shown
notes: ARV set
B22: Ab26 (Fab, V domains shown)
VH: B5 VH with H35S, Y50D, D54S, T55G, I58K, G59S, V99E, V103Y, I105M
VL: not shown
notes: ARE set
B23: Ab25 (Fab, V domains shown)
VH: B1 VH with S50A, S52K, N54S, G56S, Y57S, I105M
VL: not shown
notes: ARV set
B24: Ab101 (Fab, V domains shown)
VH: B1 VH with G33A, H35S, S50D, S53G, N54S, G55A, Y57T, T58I, I105L
VL: not shown
notes: ARV set
B25: Ab30 (Fab, V domains shown)
VH: B1 VH with S52K, G55S, Y57N, S59G, G102S, Y103V, I105M
VL: not shown
notes: ARV set
B26: Ab33 (Fab, V domains shown)
VH: B1 VH with A49S, S50D, Y57T, T58I, S59Y, V99G, Y103V, I105L
VL: not shown
notes: ARG set
B27: Ab192 (Fab, V domains shown)
VH: B5 VH with S33A, A49S, Y50S, K52S, S56G, T57Y
VL: not shown
notes: ARV set
B28: Ab81 (Fab, V domains shown)
VH: B5 VH with Y50S, S53G, D54N, S56G, T57S, I58S
VL: not shown
notes: ARV set
B29: Ab65 (Fab, V domains shown)
VH: B4 VH with S49A, S50Y, S54N, A55T, S58I, Y59S, D102S, I105L
VL: not shown
notes: ARE set
B30: Ab73 (Fab, V domains shown)
VH: B4 VH with A33S, S49A, S53G, Y59S, E99V, I105L
VL: not shown
notes: ARV set
B31: Ab120 (Fab, V domains shown)
VH: B4 VH with A33S, S35N, K52N, S54N, S57T, S58I, E99V, V103Y
VL: not shown
notes: ARV set
B32: Ab14 (Fab, V domains shown)
VH: B1 VH with A49S, N54S, Y57T, T58K, S59G, G102D, Y103V, I105M
VL: not shown
notes: ARV set
B33: Ab182 (Fab, V domains shown)
VH: B1 VH with G33S, G55T, Y57T, S59G
VL: not shown
notes: ARV set
B34: Ab167 (Fab, V domains shown)
VH: B1 VH with G33A, S53G, G55A, Y57S, T58S, Y103V
VL: not shown
notes: ARV set
B35: Ab91 (Fab, V domains shown)
VH: B4 VH with A33S, S49A, S50A, S53G, Y59S, D102S, V103Y, I105L
VL: not shown
notes: ARE set
B36: Ab9 (Fab, V domains shown)
VH: B5 VH with S30D, Y50N, D54S, T55G, S56G, T57Y, G59S, V99G, I105M
VL: not shown
notes: ARG set
B37: Ab126 (Fab, V domains shown)
VH: B1 VH with G33A, N54S, G55T, Y57S, T58I, S59G, G102S, I105M
VL: not shown
notes: ARV set
B38: Ab45 (Fab, V domains shown)
VH: B1 VH with H35N, S50R, N54S, G56S, T58I, S59G, V99G, I105L
VL: not shown
notes: ARG set
B39: Ab36 (Fab, V domains shown)
VH: B4 VH with S49A, A55G, G56S, S57Y, S58K, Y59S, D102S, V103T, I105L
VL: not shown
notes: ARE set
B40: Ab71 (Fab, V domains shown)
VH: B5 VH with Y50S, K52S, D54S, T55A, I58S, G59Y, D102G
VL: not shown
notes: ARV set
B41: Ab51 (Fab, V domains shown)
VH: B4 VH with S54N, A55S, S58K, Y59S, D102S, I105M
VL: not shown
notes: ARE set
B42: Ab100 (Fab, V domains shown)
VH: B4 VH with S49A, K52N, S53G, S54N, S57T, S58I, Y59S, D102S, V103Y, I105L
VL: not shown
notes: ARE set
B43: Ab87 (Fab, V domains shown)
VH: B4 VH with A33S, S49A, S57Y, S58I, Y59S, E99V, V103Y
VL: not shown
notes: ARV set
B44: Ab62 (Fab, V domains shown)
VH: B4 VH with A33S, S49A, K52S, S57Y, E99V
VL: not shown
notes: ARV set
B45: Ab5 (Fab, V domains shown)
VH: EVQLLESGGGLVQPGGSLRLSCAASGFTFSDYSMNWVRQAPGKGLEWVALIKSNSGSTSYADSVKGRFTISRDNSKNTLYLQMNSLRAEDTAVYYCARGPYDVWMDYWGQGTLVTVSS
VL: not shown
notes: ARG set

The assay addresses T1, His-tagged recombinant Mouse TIGIT. Put plainly: ELISA, coated His-tagged mouse TIGIT. Here is the method:
Binding affinities for antigen binding to anti-TIGIT monoclonal antibodies were determined by ELISA. […] Antibodies to be tested were diluted to 1 μM in PBS buffer containing 1% BSA and diluted 3-fold in a 10-point curve. […] Detection of the secondary antibody was determined using streptavidin-HRP and TMB reagent. All assays were performed at room temperature. Curve-fitting software was used to determine the EC₅₀ for each antibody.
For the molecule B1, the EC50 stood at 359 nM.

As for B2, the EC50 turned out to be 407 nM.

Consider B3, for which the EC50 is 221 nM.

In the case of B4, the EC50 came out at 170 nM.

With B5, the EC50 is 305 nM.

Turning to B6, the EC50 is 125 nM.

With B7, the EC50 was 111 nM.

In the case of B8, the EC50 was 213 nM.

As for B9, the EC50 came to 149 nM.

On to B10, for which the EC50 stood at 128 nM.

Take B11: the 50% effective concentration (EC50) is 357 nM.

On to B12, for which the EC50 turned out to be 86.6 nM.

Take B13: the EC50 came out at 186 nM.

With B14, the EC50 turned out to be 23.4 nM.

For B15, the EC50 came out at 60.5 nM.

As to B16, the EC50 was 110 nM.

With B17, the EC50 was 178 nM.

As for B18, the EC50 came to 56.9 nM.

With B19, the EC50 is 19.5 nM.

Take B20: the EC50 is 289 nM.

With B21, the EC50 was 150 nM.

On to B22, for which the EC50 stood at 47.5 nM.

In the case of B23, the EC50 worked out at 20.9 nM.

As for B24, the EC50 amounted to 535 nM.

In the case of B25, the EC50 came out at 135 nM.

In the case of B26, the EC50 came to 85.4 nM.

As for B27, the EC50 was 295 nM.

Regarding B28, the EC50 worked out at 307 nM.

Consider B29, for which the EC50 was determined as 778 nM.

Take B30: the EC50 turned out to be 266 nM.

Regarding B31, the EC50 was found to be 254 nM.

Turning to B32, the EC50 was 169 nM.

For the molecule B33, the EC50 turned out to be 200 nM.

As to B34, the EC50 was 61.2 nM.

B35: the EC50 was found to be 242 nM.

On to B36, for which the EC50 stood at 181 nM.

On to B37, for which the EC50 was 64.1 nM.

Turning to B38, the EC50 was found to be 48 nM.

Consider B39, for which the EC50 came out at 470 nM.

Take B40: the concentration for a half-maximal effect (EC50) is 477 nM.

Take B41: the EC50 worked out at 79.8 nM.

For B42, the EC50 stood at 258 nM.

Take B43: the EC50 was determined as 230 nM.

B44: the EC50 worked out at 361 nM.

For B45, the EC50 turned out to be 322 nM.
